# Measurements: US20190077849A1 (US Dept. of Health and Human Services, published 2019)
# “And” between values parts separate entries of the source, which are not always exact repeats. Identical values can stand only once. Like-named read-outs stand apart in the source and are kept apart here.
# B1: 10E8 variant 4 (H6-511-4mut VH + rL3-6mut VL) (antibody, V domains shown)
# VH: EVRLVESGGGLVKPGGSLRLSCSASGFDFDNAWMTWVRQPPGKGLEWVGRITGPGEGWSVDYAESVKGRFTISRDNTKNTLYLEMNNVRTEDTGYYFCARTGKYYDFWSGYPPGEEYFQDWGQGTLVIVSS
# VL: ASELTQDPAVSVALKQTVTITCRGDSLRSHYASWYQKKPGQAPVLLFYGKNNRPSGIPDRFSGSASGNRASLTITGAQAEDEADYYCSSRDKSGSRLSVFGGGTKLTVL
# B2: 10E8v4-DS (VH Y100eC and VL S30C substitutions) (antibody, V domains shown)
# VH: EVRLVESGGGLVKPGGSLRLSCSASGFDFDNAWMTWVRQPPGKGLEWVGRITGPGEGWSVDYAESVKGRFTISRDNTKNTLYLEMNNVRTEDTGYYFCARTGKYYDFWSGCPPGEEYFQDWGQGTLVIVSS
# VL: ASELTQDPAVSVALKQTVTITCRGDSLRCHYASWYQKKPGQAPVLLFYGKNNRPSGIPDRFSGSASGNRASLTITGAQAEDEADYYCSSRDKSGSRLSVFGGGTKLTVL
# B3: 10E8v4 S100cW-DS (antibody, V domains shown)
# VH: EVRLVESGGGLVKPGGSLRLSCSASGFDFDNAWMTWVRQPPGKGLEWVGRITGPGEGWSVDYAESVKGRFTISRDNTKNTLYLEMNNVRTEDTGYYFCARTGKYYDFWWGCPPGEEYFQDWGQGTLVIVSS
# VL: ASELTQDPAVSVALKQTVTITCRGDSLRCHYASWYQKKPGQAPVLLFYGKNNRPSGIPDRFSGSASGNRASLTITGAQAEDEADYYCSSRDKSGSRLSVFGGGTKLTVL
# Legend:
# [1] = biological target: HIV-1 Env of CNE31.SG3 pseudovirus (clade C) (HIV-1); assay: cell-based or functional assay
# [2] = biological target: HIV-1 Env of KER2008.12.SG3 pseudovirus (clade A) (HIV-1); assay: cell-based or functional assay
# [3] = biological target: T1, HIV-1 Env of 6095.V1.C10.SG3 pseudovirus (clade ACD) (HIV-1); assay: cell-based or functional assay
# [4] = biological target: HIV-1 Env of ZM215.8.SG3 pseudovirus (clade C) (HIV-1); assay: cell-based or functional assay
# [5] = biological target: HIV-1 Env of 6101.10.SG3 pseudovirus (clade B) (HIV-1); assay: cell-based or functional assay
# [6] = biological target: T2, HIV-1 Env of YU2.DG.SG3 pseudovirus (clade B) (HIV-1, UniProt P35961 32-843); assay: cell-based or functional assay
# [7] = biological target: HIV-1 Env of ZM106.9.SG3 pseudovirus (clade C) (HIV-1); assay: cell-based or functional assay
# [8] = biological target: HIV-1 Env of PVO.04.SG3 pseudovirus (clade B) (HIV-1); assay: cell-based or functional assay
# [9] = biological target: HIV-1 Env of TH966.8.SG3 pseudovirus (clade AE) (HIV-1); assay: cell-based or functional assay
# [10] = biological target: HIV-1 Env of CNE31.SG3 pseudovirus (clade C) (HIV-1); assay: cell-based or functional assay; remark: listed apart in the source
# [11] = biological target: HIV-1 Env of KER2008.12.SG3 pseudovirus (clade A) (HIV-1); assay: cell-based or functional assay; remark: listed apart in the source
# [12] = biological target: HIV-1 Env of ZM106.9.SG3 pseudovirus (clade C) (HIV-1); assay: cell-based or functional assay; remark: listed apart in the source
# [13] = biological target: HIV-1 Env of PVO.04.SG3 pseudovirus (clade B) (HIV-1); assay: cell-based or functional assay; remark: listed apart in the source
# [14] = biological target: HIV-1 Env of TH966.8.SG3 pseudovirus (clade AE) (HIV-1); assay: cell-based or functional assay; remark: listed apart in the source
# [15] = biological target: HIV-1 Env of CNE31.SG3 pseudovirus (clade C) (HIV-1); assay: cell-based or functional assay; remark: listed apart in the source
# [16] = biological target: HIV-1 Env of KER2008.12.SG3 pseudovirus (clade A) (HIV-1); assay: cell-based or functional assay; remark: listed apart in the source
# [17] = biological target: T1, HIV-1 Env of 6095.V1.C10.SG3 …; assay: cell-based or functional assay; remark: listed apart in the source
# [18] = biological target: HIV-1 Env of ZM215.8.SG3 pseudovirus (clade C) (HIV-1); assay: cell-based or functional assay; remark: listed apart in the source
# [19] = biological target: HIV-1 Env of 6101.10.SG3 pseudovirus (clade B) (HIV-1); assay: cell-based or functional assay; remark: listed apart in the source
# [20] = biological target: T2, HIV-1 Env of YU2.DG.SG3 pseudovirus …; assay: cell-based or functional assay; remark: listed apart in the source
# [21] = biological target: HIV-1 Env of ZM106.9.SG3 pseudovirus (clade C) (HIV-1); assay: cell-based or functional assay; remark: listed apart in the source
# [22] = biological target: HIV-1 Env of PVO.04.SG3 pseudovirus (clade B) (HIV-1); assay: cell-based or functional assay; remark: listed apart in the source
# [23] = biological target: HIV-1 Env of TH966.8.SG3 pseudovirus (clade AE) (HIV-1); assay: cell-based or functional assay; remark: listed apart in the source
# MPER peptide = biological target: T3, MPER peptide (HIV-1); assay: MPER peptide binding assay (method not given)
# T3 construct: also called gp41 MPER peptide
binder,measurement,setting,value
B1,"IC50, pseudovirus neutralization",[1],1.74 µg/mL
same,"IC80, pseudovirus neutralization",[1],4.85 µg/mL
same,"IC50, pseudovirus neutralization",[2],> 50 µg/mL
same,"IC80, pseudovirus neutralization",[2],> 50 µg/mL
same,"IC50, pseudovirus neutralization",[3],0.004 µg/mL
same,"IC80, pseudovirus neutralization",[3],0.021 µg/mL
same,"IC50, pseudovirus neutralization",[4],0.042 µg/mL
same,"IC80, pseudovirus neutralization",[4],0.326 µg/mL
same,"IC50, pseudovirus neutralization",[5],0.011 µg/mL
same,"IC80, pseudovirus neutralization",[5],0.09 µg/mL
same,"IC50, pseudovirus neutralization",[6],0.668 µg/mL
same,"IC80, pseudovirus neutralization",[6],5.32 µg/mL
same,"IC50, pseudovirus neutralization",[7],> 50 µg/mL
same,"IC80, pseudovirus neutralization",[7],> 50 µg/mL
same,"IC50, pseudovirus neutralization",[8],0.894 µg/mL
same,"IC80, pseudovirus neutralization",[8],8 µg/mL
same,"IC50, pseudovirus neutralization",[9],0.026 µg/mL
same,"IC80, pseudovirus neutralization",[9],0.169 µg/mL
same,"IC50, pseudovirus neutralization",[10],1.16 µg/mL
same,"IC50, pseudovirus neutralization",[11],> 50 µg/mL
same,"IC50, pseudovirus neutralization",[12],> 50 µg/mL
same,"IC50, pseudovirus neutralization",[13],2.39 µg/mL and 1.13 µg/mL
same,"IC50, pseudovirus neutralization",[14],0.036 µg/mL and 0.021 µg/mL
same,"IC50, pseudovirus neutralization",[15],1.32 µg/mL
same,"IC80, pseudovirus neutralization",[15],4.04 µg/mL
same,"IC50, pseudovirus neutralization",[16],> 50 µg/mL
same,"IC80, pseudovirus neutralization",[16],> 50 µg/mL
same,"IC50, pseudovirus neutralization",[17],0.004 µg/mL
same,"IC80, pseudovirus neutralization",[17],0.015 µg/mL
same,"IC50, pseudovirus neutralization",[18],0.122 µg/mL
same,"IC80, pseudovirus neutralization",[18],0.502 µg/mL
same,"IC50, pseudovirus neutralization",[19],0.052 µg/mL
same,"IC80, pseudovirus neutralization",[19],0.263 µg/mL
same,"IC50, pseudovirus neutralization",[20],1.49 µg/mL
same,"IC80, pseudovirus neutralization",[20],6.33 µg/mL
same,"IC50, pseudovirus neutralization",[21],> 50 µg/mL
same,"IC80, pseudovirus neutralization",[21],> 50 µg/mL
same,"IC50, pseudovirus neutralization",[22],3.07 µg/mL
same,"IC80, pseudovirus neutralization",[22],11.9 µg/mL
same,"IC50, pseudovirus neutralization",[23],0.056 µg/mL
same,"IC80, pseudovirus neutralization",[23],0.291 µg/mL
B2,fold tighter binding than 10E8v4,MPER peptide,2 fold
same,"IC50, pseudovirus neutralization",[1],2.28 µg/mL
same,"IC80, pseudovirus neutralization",[1],6.48 µg/mL
same,"IC50, pseudovirus neutralization",[2],> 50 µg/mL
same,"IC80, pseudovirus neutralization",[2],> 50 µg/mL
same,"IC50, pseudovirus neutralization",[3],0.002 µg/mL
same,"IC80, pseudovirus neutralization",[3],0.017 µg/mL
same,"IC50, pseudovirus neutralization",[4],0.208 µg/mL
same,"IC80, pseudovirus neutralization",[4],0.798 µg/mL
same,"IC50, pseudovirus neutralization",[5],2.41 µg/mL
same,"IC80, pseudovirus neutralization",[5],22.2 µg/mL
same,"IC50, pseudovirus neutralization",[6],0.275 µg/mL
same,"IC80, pseudovirus neutralization",[6],2.44 µg/mL
same,"IC50, pseudovirus neutralization",[7],> 50 µg/mL
same,"IC80, pseudovirus neutralization",[7],> 50 µg/mL
same,"IC50, pseudovirus neutralization",[8],2.53 µg/mL
same,"IC80, pseudovirus neutralization",[8],10.1 µg/mL
same,"IC50, pseudovirus neutralization",[9],0.092 µg/mL
same,"IC80, pseudovirus neutralization",[9],0.345 µg/mL
B3,"IC50, pseudovirus neutralization",[1],0.806 µg/mL
same,"IC80, pseudovirus neutralization",[1],2.93 µg/mL
same,"IC50, pseudovirus neutralization",[2],> 50 µg/mL
same,"IC80, pseudovirus neutralization",[2],> 50 µg/mL
same,"IC50, pseudovirus neutralization",[3],0.002 µg/mL
same,"IC80, pseudovirus neutralization",[3],0.013 µg/mL
same,"IC50, pseudovirus neutralization",[4],0.037 µg/mL
same,"IC80, pseudovirus neutralization",[4],0.245 µg/mL
same,"IC50, pseudovirus neutralization",[5],1.22 µg/mL
same,"IC80, pseudovirus neutralization",[5],10.1 µg/mL
same,"IC50, pseudovirus neutralization",[6],0.213 µg/mL
same,"IC80, pseudovirus neutralization",[6],2.2 µg/mL
same,"IC50, pseudovirus neutralization",[7],> 50 µg/mL
same,"IC80, pseudovirus neutralization",[7],> 50 µg/mL
same,"IC50, pseudovirus neutralization",[8],0.331 µg/mL
same,"IC80, pseudovirus neutralization",[8],3.67 µg/mL
same,"IC50, pseudovirus neutralization",[9],0.019 µg/mL
same,"IC80, pseudovirus neutralization",[9],0.092 µg/mL
